Results published in PMC2119460.

Target: H-2Db class I MHC molecule on the surface of RMA-S cells (mouse (endogenous in RMA-S))

influenza NP (365-380) peptide
fold increase in H-2Db reactivity (mAb 28.14.8) after peptide treatment: 2 fold
